Tests used:
B6 mice = experiment: murine myocardial infarction model (1 h LAD occlusion, 24 h reperfusion); assay type: in vivo, mouse; conditions: pretreatment with 100 ugs of Fab'2 fragment (Fc removed)
Protocol: (§1) A panel of mouse hybridomas were prepared to identify the N2 region of non-muscle myosin II heavy chain. Thus, mice were immunized with the N2 peptide (Ac-LMKNMDPLNDNV (SEQ ID NO: 33)) coupled to a carrier protein (KLH). This region (N2) is highly conserved and identical in mouse and man. […] 12A6 is a IgG2b isotype. Its VH most closely matches the germ line gene 3609.11.169 sequence paired with DH: DSP2/DFL16.1 and its light chain is a V kappa 8-27 with JK1. 21G6 is an IgG1 isotype with its VH matching J558.35; DH: DSP2.6/DSP2.4/DSP2.3 and JH: JH3. Its light chain is V kappa hf24 and JK4.
B6 mice were subjected to 1 h LAD occlusion followed by 24 h reperfusion. […] Following reperfusion, both serum troponin-I levels (A) and mouse IgM deposition (B) were analyzed and statistical significance for each was evaluated by Student's t test (FIG. 3).
[…] Serum troponin-I levels were measured after 24 h reperfusion.

N2 self-peptide = experiment: binding of anti-N2 antibody in vivo in heart after LAD occlusion and reperfusion (confocal microscopy); parameters: species or system mouse; conditions: B6 mice
Protocol: Specificity of the anti-N2 antibody. B6 mice were injected i.v. with fluorescently-labeled anti-N2 antibody (12A6) and anti-CD31 antibody prior to 60 min LAD occlusion and 30 min reperfusion. Following treatment, hearts were collected, fixed, and analyzed by confocal microscopy. The area at risk (left ventricle) was compared with the non-risk area (right ventricle). Quantification of the individual antibody staining as well as the merged images both in the area at risk and non-risk area is shown in FIG. 5.

[1] = target: N2 peptide (N2 region of non-muscle myosin II heavy chain) (Mus musculus, UniProt Q61879); experiment: binding of hybridoma antibodies to the N2 peptide in vitro
Protocol: as §1

B1: 21G6: murine anti-N2 IgG1 produced by hybridoma PTA-9393; VH SEQ ID NO: 14, VL SEQ ID NO: 20 (antibody, listed as Mus sp., V domains shown)
VH: QVQLQESGAELVKPGASVKLSCKASGYTFTSYYMYWVKQRPGQGLEWIGGINPSNGGTNFNEKFKSKATLTVDKSSSTAYMQLSSLTSEDSAVYYCTRWGYDREWFAYWGQGTLVTVSA
VL: DIVMTQAAPSVPVTPGESVSISCRSSKSLLHSNGNTYLYWFLQRPGQSPQVLIYRMSNLASGVPDRFSGSGSGTAFTLRISRVEAEDVGVYYCMQHLEYPFTFGSGTKLEIKR
In the case of B1, the ischemia reperfusion injury (B6 mice) is reported as “blocks ischemia reperfusion injury”, the “binding to the N2 self-peptide in vivo” value (N2 self-peptide) is reported as “bind the N2 peptide” and the “binding to the N2 peptide in vitro” value [1] is reported as “bind the N2 peptide”.

Source: patent US9067983B2, “Anti-inflammatory antibodies and uses therefor” (DecImmune Therapeutics, Inc., priority 2009, dated 2015)
